Source: US20130247232A1 (PRECISION BIOLOGICS, published 2013)
Substitutions are numbered along the chain they refer to. Ends that are not written are not given here.

T1: MUC5AC truncation construct 1-136 (human, UniProt P98088 3212-4055)
T1 sequence: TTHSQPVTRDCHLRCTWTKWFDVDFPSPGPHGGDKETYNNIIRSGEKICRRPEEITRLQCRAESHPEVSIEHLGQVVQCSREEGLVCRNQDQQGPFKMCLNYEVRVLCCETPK

T2: MUC5AC truncation construct 1-85 (human, UniProt P98088 1734-1794)
T2 chain: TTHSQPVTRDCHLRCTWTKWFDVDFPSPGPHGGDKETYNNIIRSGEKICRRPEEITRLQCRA

B1: M13 phage clone 4-1-2-C5 (other)
chain: WHTLPEKSLDENGGGSAETVESCLAKPHTENSFTNVWKDDKTLDRYANYEGCLWNATGVVVCTGDETQCYGTWVPIGLAIPENEGGGSEGGGSEGGGSEGGGTKPPEYGDTPIPGYTYINPLDGTYPPGTEQNPANPNPSLEESQPLNTFMFQNNRFRNRQGALTVYTGTVTQGTDPVKTYYQYTPVSSKAMYDAYWNGKFRDCAFHSGFNEDPFVCEYQGQSSDLPQPPVNAGGGSGGGSGGGSEGGGSEGGGSEGGGSEGGGSGGGSGSGDFDYEKMANANKGAMTENADENALQSDAKGKLDSVATDYGAAIDGFIGDVSGLANGNGATGDFAGSNSQMAQVGDGDNSPLMNNFRQYLPSLPQSVECRPFVFSAGKPYEFSIDCDKINLFRGVFAFLLYVATFMYVFSTFANILRNKES
notes: Whole phage particle displaying the peptide on pIII
B2: M13 phage clone 4-1-3-C8 (other)
chain: B1 chain with K7S, S8G, L9E, D10V, E11T, N12S
notes: as for B1
B3: M13 phage clone 4-1-3-C9 (other)
chain: FPEDYFRYTNQKGGGSAETVESCLAKPHTENSFTNVWKDDKTLDRYANYEGCLWNATGVVVCTGDETQCYGTWVPIGLAIPENEGGGSEGGGSEGGGSEGGGTKPPEYGDTPIPGYTYINPLDGTYPPGTEQNPANPNPSLEESQPLNTFMFQNNRFRNRQGALTVYTGTVTQGTDPVKTYYQYTPVSSKAMYDAYWNGKFRDCAFHSGFNEDPFVCEYQGQSSDLPQPPVNAGGGSGGGSGGGSEGGGSEGGGSEGGGSEGGGSGGGSGSGDFDYEKMANANKGAMTENADENALQSDAKGKLDSVATDYGAAIDGFIGDVSGLANGNGATGDFAGSNSQMAQVGDGDNSPLMNNFRQYLPSLPQSVECRPFVFSAGKPYEFSIDCDKINLFRGVFAFLLYVATFMYVFSTFANILRNKES
notes: as for B1
B4: M13 phage clone 4-1-3-C11 (other)
chain: VHAIEDNWSPRGGGGSAETVESCLAKPHTENSFTNVWKDDKTLDRYANYEGCLWNATGVVVCTGDETQCYGTWVPIGLAIPENEGGGSEGGGSEGGGSEGGGTKPPEYGDTPIPGYTYINPLDGTYPPGTEQNPANPNPSLEESQPLNTFMFQNNRFRNRQGALTVYTGTVTQGTDPVKTYYQYTPVSSKAMYDAYWNGKFRDCAFHSGFNEDPFVCEYQGQSSDLPQPPVNAGGGSGGGSGGGSEGGGSEGGGSEGGGSEGGGSGGGSGSGDFDYEKMANANKGAMTENADENALQSDAKGKLDSVATDYGAAIDGFIGDVSGLANGNGATGDFAGSNSQMAQVGDGDNSPLMNNFRQYLPSLPQSVECRPFVFSAGKPYEFSIDCDKINLFRGVFAFLLYVATFMYVFSTFANILRNKES
notes: Whole phage particle; its peptide served as the control peptide
B5: M13 phage clone 4-1-4-C12 (other)
chain: SLPDDWFRYINYGGGSAETVESCLAKPHTENSFTNVWKDDKTLDRYANYEGCLWNATGVVVCTGDETQCYGTWVPIGLAIPENEGGGSEGGGSEGGGSEGGGTKPPEYGDTPIPGYTYINPLDGTYPPGTEQNPANPNPSLEESQPLNTFMFQNNRFRNRQGALTVYTGTVTQGTDPVKTYYQYTPVSSKAMYDAYWNGKFRDCAFHSGFNEDPFVCEYQGQSSDLPQPPVNAGGGSGGGSGGGSEGGGSEGGGSEGGGSEGGGSGGGSGSGDFDYEKMANANKGAMTENADENALQSDAKGKLDSVATDYGAAIDGFIGDVSGLANGNGATGDFAGSNSQMAQVGDGDNSPLMNNFRQYLPSLPQSVECRPFVFSAGKPYEFSIDCDKINLFRGVFAFLLYVATFMYVFSTFANILRNKES
notes: as for B1
B6: NEO-101 antibody (chimeric) (antibody, V domains shown)
VH: QVQLKESGPDLVAPSQSLSITCTVSGFSLSKFGVNWVRQPPGKGLEWLGVIWGDGSTSYNSGLISRLSISKENSKSQVFLKLNSLQADDTATYYCVKPGGDYWGHGTSVTVSS
VL: QVVLTQSPVIMSASPGEKVTMTCSASSSISYMYWYQQKPGTSPKRWIYDTSKLASGVPARFSGSGSGTSYSLTISNMEAGDAATYYCHQRDSYPWTFGGGTNLEIK
notes: Chimeric, murine variable regions with human constant regions; Used unlabeled, biotinylated, FITC-labeled or coupled to Dynal beads depending on the assay; also called NPC-1C; NPC-1-C

How the values were obtained:
[1] = molecular target: B6; experiment: competition: phage premixed with NEO-101-coupled beads, then rosetting of CFPAC1 cells
Procedure: The M13 clones identified by the biopanning were also immunoassayed using magnetic beads. […] CFPAC1 cells (30 μl of 10⁶cells/ml) were added and incubated at 4° C. for 30 min. Rosetted cells were counted (>8 beads/cell).

[2] = molecular target: B6; experiment: ELISA, biotinylated peptide on NEO-101 coated plate
Procedure: To solve the poor binding of peptides to 96 well plate, peptides were biotinylated using EZ-link micro NHS Biotinylation kit (Pierce Cat#21955), and labeling efficiency checked by dot blot (50%). […] The solution was blocked with 200 μl of 1% milk in TBS at RT for 20 min, Aliquots of 100 μl peptide-biotin (1 μg/ml) in 0.1% milk-TBS were added, and incubated at RT of 2 hr, followed by three washes with TBST. Streptavidin-HRP (100 μl of 1:2000 diluted in 1:10 diluted blocking buffer) was added, and the wells incubated at RT for 1 hr, followed by three washed. TMB was then added, and the wells were read at 450 nm. Positive controls for NPC-1C binding used 4B6-biotin. The results are shown in FIG. 11, which indicates biotinlyated peptides bind to NPC-1C coated plate.

[3] = molecular target: T1, MUC5AC truncation construct 1-136; experiment: immunofluorescence of transfected 293T cells
Procedure: (§1) Cells were transiently transfected with 2 μg of MUC5AC constructs of Table 8 with LIPOFECTAMINE®. Cells were grown for about 72 hours, fixed with about 4% PFA in PBS, washed with PBS, permeabilized with about 0.2% […] in PBS and washed with PBS. […] Cells were washed with PBS and second anti human-FITC antibody (1:500) was added to all wells and to the second antibody control wells. Cells were washed and mounted on slides with DAPI hard mount. Cover slides were allowed to sit over night at about 4° C. Slides were visualized with a Nikon Eclipse Ti microscope with an Andor camera. At least 3 random fields were counted per transfection.

[4] = molecular target: T2, MUC5AC truncation construct 1-85; experiment: immunofluorescence of transfected 293T cells
Procedure: as §1

Binder	Positive rosette cells (%) [1] [%]	other results
B1	0	
B2	0	
B3	0	
B4	38	
B5	0	
YSHSVHAIEDNWSPRGGGGS (also: biotinylated (position not given here), also called negative control) [synthetic peptide 4-1-3-C11 (control peptide)]		binding result [2]: no binding (tested: 1 µg/ml)
B6		binding result [3]: no binding (tested: about 2 µg/ml); binding result [4]: no binding (tested: about 2 µg/ml)
